Measured values published in patent publication US20060234940.

Target: peptides of the growth hormone releasing factor (GRF) family

B1: DP IV activity of the human serum (protein)
chain: SRKTYTLTDYLKNTYRLKLYSLRWISDHEYLYKQENNILVFNAEYGNSSVFLENSTFDEFGHSINDYSISPDGQFILLEYNYVKQWRHSYTASYDIYDLNKRQLITEERIPNNTQWVTWSPVGHKLAYVWNNDIYVKIEPNLPSYRITWTGKEDIIYNGITDWVYEEEVFSAYSALWWSPNGTFLAYAQFNDTEVPLIEYSFYSDESLQYPKTVRVPYPKAGAVNPTVKFFVVNTDSLSSVTNATSIQITAPASMLIGDHYLCDVTWATQERISLQWLRRIQNYSVMDICDYDESSGRWNCLVARQHIEMSTTGWVGRFRPSEPHFTLDGNSFYKIISNEEGYRHICYFQIDKKDCTFITKGTWEVIGIEALTSDYLYYISNEYKGMPGGRNLYKIQLSDYTKVTCLSCELNPERCQYYSVSFSKEAKYYQLRCSGPGLPLYTLHSSVNDKGLRVLEDNSALDKMLQNVQMPSKKLDFIILNETKFWYQMILPPHFDKSKKYPLLLDVYAGPCSQKADTVFRLNWATYLASTENIIVASFDGRGSGYQGDKIMHAINRRLGTFEVEDQIEAARQFSKMGFVDNKRIAIWGWSYGGYVTSMVLGSGSGVFKCGIAVAPVSRWEYYDSVYTERYMGLPTPEDNLDHYRNSTVMSRAENFKQVEYLLIHGTADDNVHFQQSAQISKALVDVGVDFQAMWYTDEDHGIASSTAHQHIYTHMSHFIKQCFSLP
  hydrolysis (MALDI-TOF MS, capillary zone electrophoresis): All peptides were hydrolyzed by porcine DP IV, recombinant human DP IV or DP IV activity of the human serum

B2: porcine kidney DP IV, wild type (protein)
chain: DSRRTYTLTDYLKSTFRVKFYTLQWISDHEYLYKQENNILLFNAEYGNSSIFLENSTFDELGYSTNDYSVSPDRQFILFEYNYVKQWRHSYTASYDIYDLNKRQLITEERIPNNTQWITWSPVGHKLAYVWNNDIYVKNEPNLSSQRITWTGKENVIYNGVTDWVYEEEVFSAYSALWWSPNGTFLAYAQFNDTEVPLIEYSFYSDESLQYPKTVRIPYPKAGAENPTVKFFVVDTRTLSPNASVTSYQIVPPASVLIGDHYLCGVTWVTEERISLQWIRRAQNYSIIDICDYDESTGRWISSVARQHIEISTTGWVGRFRPAEPHFTSDGNSFYKIISNEEGYKHICHFQTDKSNCTFITKGAWEVIGIEALTSDYLYYISNEHKGMPGGRNLYRIQLNDYTKVTCLSCELNPERCQYYSASFSNKAKYYQLRCFGPGLPLYTLHSSSSDKELRVLEDNSALDKMLQDVQMPSKKLDVINLHGTKFWYQMILPPHFDKSKKYPLLIEVYAGPCSQKVDTVFRLSWATYLASTENIIVASFDGRGSGYQGDKIMHAINRRLGTFEVEDQIEATRQFSKMGFVDDKRIAIWGWSYGGYVTSMVLGAGSGVFKCGIAVAPVSKWEYYDSVYTERYMGLPTPEDNLDYYRNSTVMSRAENFKQVEYLLIHGTADDNVHFQQSAQLSKALVDAGVDFQTMWYTDEDHGIASNMAHQHIYTHMSHFLKQCFSLP
  hydrolysis (MALDI-TOF MS, capillary zone electrophoresis): All peptides were hydrolyzed by porcine DP IV, recombinant human DP IV or DP IV activity of the human serum
